One substance from article PMC5790919, “UDP-Glucuronic Acid Transport Is Required for Virulence of Cryptococcus neoformans” (mBio, 2018) can be followed below.

This data set has as its system O=C(O)[C@H]1O[C@H](OP(=O)(O)OP(=O)(O)OC[C@H]2O[C@@H](n3ccc(=O)[nH]c3=O)[C@H](O)[C@@H]2O)[C@H](O)[C@@H](O)[C@@H]1O. Description: cells, lysate or membranes. The conditions noted are these: proteoliposomes preloaded with 10 mM UMP (antiport), 2 min uptake; transport; kcat printed as turnover rate.

On to Uut1 (Cryptococcus neoformans H99), for which the Km was found to be 0.6 ± 0.1 µM and the kcat came out at 0.08 s⁻¹.

The Km is the substrate concentration at which the rate is half of its maximum. In general, kcat refers to the maximal rate divided by the concentration of active sites.
